Experiment: soluble fraction after stress (log2 fold change); higher = more stays soluble; pooled small domains, quantitative proteomics
Conditions: stress: pH 4
Procedure, shortened: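 With high-throughput quantitative proteomics, pooled custom libraries of small protein domains were measured after pH 4 stress. Each domain's soluble amount after the stress gives a fold change taken as aggregation propensity. Higher log2 values mean more of the domain stayed soluble.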

Sequence | soluble fraction (log2)
HMHHDQQQITAELARIARNGLPGLTADNAIISRLDALNLLINIHDDRGADATPLRGLLPAIADELLRLT | 0.0087
HMHHIDTAWFRGKMREHRLTQEAVGQAIGLERSMVSKIIKGTVSFNARKASAWAQLLRVSESEILERVGI | -0.379
HMHHIDYKQLRRINPVAARRAVLDYLESTGGNITKTAQVFSINRSVVYDILKKQASGDLSDRLRIP | 0.249
HMHIDQVIRERRLALGLTQEELANKIGVSAPAVSKWEKRVSYPDITLLPALARILGTDVNTLLTFS | -0.309
HMHIVQEGDSLYGIARQYRITVEELRSLNALETADVIVPYQKLYV | -1.14
HMHKPLRILVYEELRMLIMTGQIKPGTRMMEIDLAESMGVSRTPVREAIRQLEKDNLVTIEPRRGAYVSD | -0.761
HMHKYQVGETVYYTSPTFGRAAATGSYIVVKLLPSEGDDYQYRIKSSGEAFERVAKESQLDR | 0.11
HMHLIPRESTYEIDGRRFVVDSVNLDFGKVSLQDITFRNATGFPIFRSESIEFMRRLVEISEAQRIAEL | -0.114
HMHLPDNAVSIISELKMTPEEVLELIGKLPHDFLFLPYSQRKKIIVDLIPNKDYKLLMSLIKKFML | -0.536
HMHLTRYQYKVETEQEAVGLKELSSVHDLQIKENEATFQADSDAIDEILKTLLLYGVKKLEATPPTLED | -1.05
HMHMSLTEKYKELTDLAVSAGVQNLNVREQDGVLYVDGDASGAVKQQLWDTYGKLDPDYTSGDLVLNI | -0.696
HMHNSPSPVATTILRFLQPVRAFVGDTEDMRTFGPFLREDVAMVPASQAKNLIRSGHAVEINP | -0.173
HMHNSQTIIDNIKRIANEQNISLSKLAVISGLGKNTITSMTAKTNIKIETLTAIAKSLNVSIHDLTGE | 0.0739
HMHPDHRTATVPDAAAGRRFDAVLAELFPQFSRSKLTTWIKSGEVLLNGEVPRPRDAVVGGETVSLNVVL | ≥ 0.43
HMHPMVEAYLADLDRALSGSDPREHAETMSAVREHLADAIAPDATAEQVRHALDELGPVEAIAAG | -0.239
HMHPQISVEGVLPLKEAVEFVEREIISHAYSRYRATREVARHLGIDPSTVLRKAAKYGITVEPGKN | -0.372
HMHPRDREENKYLLLRGERIYEESIGEKRLYVEAALHKYEKALSSYDTGLIDEAKEEFKKFLEEIEEA | -0.438
HMHPVEPDDPDQHILFQHLRGQDQVHIDALIRLSGWTADKVSSTLLFMELQGLVKQLPGMYYALE | -1.07
HMHQAADFAGFITFNKDGVEQFSFGKYKNQTVVSVLEKDPGYYSWIQNADFPLYTKKILTAIRLAM | -0.0054
HMHQALLEQSAEHAQQVKAYELLLTAERALDEENTEAFLSAMKSLKPLAENLDAKGKALYQELLPFVTEA | -0.425
HMHQAVTVTKPARLFTGPDGKGVVRSLDVGMMLYPTGEKQGMMWEVEDELGNKGWVSSTLLELS | 0.197
HMHSEEAALLHRYIDSLEEPQHTVVVMRDIGGYSFEEIASVVQLKEAHIWMILSRARRKLRELYIKTMDHH | -0.101
HMHSFFGDNIKKLRTAKKMSQEQLADIFGITKAGISYWETGRSEPNFATVQKLADFFGVTTSDLLGEA | 0.187

Sequence | soluble fraction (log2)
HMHSFGLHVRNLRKKSNLTLSQLSNASGLSLSAISKIENNQISPSFINLIRLAEGLKMHIADLVTVK | -0.254
HMHSGFHSAILDVDRAVKEGKTLYEALNKYPYIFDETFRSLVRAGEASGELPSILSKLALYLEEQSK | -1.04
HMHSLLDDIPNVGEKRKRILLTHFQSLEEIKAATVEELERLPQINRKAAESIYTFFHSQPIR | 0.139
HMHSRLEDIPGIGPRRRAMLLRHFGGLAELKAAGVEEIARVEGINMALAQRLWRALHGVPDPT | 0.343
HMHSVIALTIPADYAGLRLDQALAKLLPNWSRSRLQTWIAENRVILDGQITTIKQKVWGNELIQISPQD | -0.252
HMHTDQVLVMTRAVGQGEIVRNTDVGLTSVAVDRAVTTIPASQLDEIVGRHALVDLSAGQLLGSHSVGA | -0.0551
HMHTNNALWAIADDMRARKDDGEFDTYREGYKWAANNIVKEGIHITAIKLEKAYHKAKSEGKV | 0.301
HMHVSIAENIRRIRTQHDMTQEEFGKVAAVSAMAVSQWENGRAVPRMGAVQRIADYFNISKGEVID | 0.121
HMHWDIAQADAKQEVMDSSDDKEAIERIQANMFKDPKDHDQEYANKILNDMIDEIKEKGLEAMQHKFAQE | ≥ 0.43
HMHYELTPDAEKQLSALGLTAELVERILEEANDRRPIPGTNRTVYSLHGYSVEFSNTNHKIVSVRKG | 0.343
HMIAAPFVVKDIRVDGVQPATGEAIISSLPVKVGQTATDADVSNVVRQLFSLNRFQNVQATREGNTLVIKV | 0.0417
HMIAGHLQIKNDYYYMVLSYTDSDGKRKQPWIPTGLPMKGNKKRAEKMLIETRQTYVPPVSSG | 0.203
HMIAIGDDARLDDAARFFRIAEDSYAAGDYRKSKENYIEARKLYAELGDHEKVNLINSKISAIDSIT | -0.0121
HMIAVIKPSATAEQKAGLVDWIRGQGIDVHISEGHDYTVLGLIGDTSKIDMDLIASLDIVDSVKRVA | -0.168
HMIDAHTTLLAKRLESKGFLALTDKSSAEEIYEEFGISKKAFKKALGALYKERLVRIGEDGVVWM | -0.721
HMIDDPTAVILRLVSEKQVIRRDDVVKALSVTPQKAYRLLKTMTTGGLLTRSGARRTTVYGLPDARER | 0.22
HMIDEKVQAADKSIEIGNLSPLKGLVTDDEMHELEKLFEKVMALKDFEVNDVGAGRKYIEAYVSFFKFAEG | -0.847
HMIDELNVGDIRFYLNRYGKEIQIEIIRIGDDGSVYARTMADNALFRVPEARLKNIGEKVPAEEVQRG | -0.348
HMIDFTHEDIERLWNAIVHYVPERQKSDMAIDFIKSLEDIGVEHDEIKASAEYDPKLEEAINTVY | -0.357
HMIDIDNLEKAAILLLSMGTEAAAKVMQKLSRDEVQRLISKMASLSGVSSIEAKWTLQQFFNQYREQSG | -0.832
HMIDLSELINKTGSAYTNLRPSGTAVIGDDRVDVVTEGTFVEKDRPVKVVAVEGQRVVVREVE | -0.206
HMIDMQIDTARFGTLGVDDDKIITFPKGLPGFEDERRFFLMDHSGSSKIKWLHSADNPGLALV | -0.541
HMIDVGSKIRSLRKSKNISISTLAKNSDLSTGLISQIERNMVVPSIVAMWKISKALDINIGYFFE | -0.109

Sequence | soluble fraction (log2)
HMIEDMQQYIKEIRQMVSGRLDMTRNLEDEEIRDTIAELVAEESRKQYMTLTEKREVIEGVFNSMR | -0.687
HMIEEIAVPEILGMQEEEAKAKIEGLGLVFNVTDRVKSNEYEKGEVMYQSVGPDDTTVKSGYPINVTISEG | -0.162
HMIEEIPYSQFMSMLEEGKIDKAEIYQDSIIFSTKPDEQGKAGYYSIAYMKDNVLADRLYDAGVEFTPII | -1.4
HMIEGEQVRLLRLLERQEGGMLPLGDKSPASDILLLTGMSKKTFKMAVGALYKAQMITMTPTSIKLVK | 0.386
HMIEGETPEQTMERVSKDPEIVQILQDPVMQGILAQARENPAALQDHMKNPEVYKKINMLIAAGVIRT | -0.113
HMIEGSSDWKPNMILDDGGDLTKIIHEEYQDLLDDIRGLSEETTTGVLRLYEMEKENSLAVPAINVND | -0.578
HMIEKGSDALEKELRKNNLSINEFLTNKNIDIILDELKLKDIDDLYVNIALGKYTPNQIIKIVNK | -0.61
HMIELEGVISSVLAGTMFKVKLRGNGHEVLAHISGKMRKKFIRLVIGDAVKIEMSPYDMDKARIVYRI | 0.269
HMIELTTDYKKRVVEALVSARENYSGSDSDFARKWSIDKTVYSRLKKGYQEGLLSVGKYIELGMELNVSSR | 0.0127
HMIENITIELNKKALALDFELNKDLPEGVLETIPTLVSLMVRFDPLTVSYHFLRDYIDALLESNLNVDL | -0.56
HMIENMQEYVRHIRAAVSDRLDLTREVEDDEIREVISQIVAEESRQNYLSLGERQTVIETVFNSMR | -2.17
HMIERLVEFVHTLRHSGVRVSMAEAMDAAEALRHTPITERQIFKTALQSVLVKEHQDIPAFDAAFERFFL | -0.728
HMIESLKGILHKKDPTIAIIDVGGVRLSVNITLSTYEKLEEINSSIELLTYFNVREDAMELYG | -0.377
HMIETIIGAEGKVLETIDNFNQKGVVALAGKEWTARSADASIIPEGAKVSVVEISGVKLIVTQN | -0.24
HMIETLGDATFKRLKAMILDGTLEPGTRLSEKKFADHLGVSRTPVREAIGQLVSEGLAKRSAGSAPVVSS | 0.069
HMIFSIIPGQIRLTKMEIADGYLVLYGFTPSKEIYNLHLNPALKSIFTSSETSFIPVSGGLKFMSTNKL | -0.442
HMIGAKVLVNGQLHRDSYGEGPGQTESNATRLVNYINMKGSHPYHVTTLDGGWRGWVTADSVQV | ≥ 0.43
HMIGDNNELFQKAQLTPREKEVALLLLQGETNSDIAKILYVGLSTVKKHISSIFEKTKVKSRTEFISKVR | 0.0668
HMIGDYALILNIKGGSDWYLGNRVELLFTDGTSKIVTTDKDYNAKKDMVPTQIVTYKVNDNGEYSLKALPT | -1.2
HMIGEKLKEIREKTGMNKKEFAQYLGLKYTTYNNYETEAREPASDFLILISTKFDVSIDYLLGLQ | -0.389
HMIGIEALAGEIDRVRQVLTGGGGLSDVQLFSQLKALNEIKAALGASPDPRAPELVQRVDQLLEAAFRS | -1.1
HMIGIGSDVPNKLKPAIYSFGLVAVGEKSVIPDGVQIGKNTAVSGVTSKEDYPDGVLESGETLIKA | 0.22
HMIGKLTSSKLAAIHKMKTNELLAHFTEKGFLNINDAGKYILTQQGKDVGAEFKTSQYGGYFLWPENIE | 0.0031

— the domain aggregation screens of Martell et al. (2025)
